EC50 of LIBS1 epitope exposure on CHO cells expressing αIIbβ3 (flow cytometry, 1 mM Mg2+ and 1 mM Ca2+) data for one substance are collected here from PMC4813479, “β-Subunit Binding Is Sufficient for Ligands to Open the Integrin αIIbβ3 Headpiece” (The Journal of Biological Chemistry, 2015).

The target in this experiment is full-length human αIIbβ3 on CHO K1 cells (human) (UniProt P08514).

As for fibronectin hexapeptide GRGDSP, the EC50 of LIBS1 epitope exposure on CHO cells expressing αIIbβ3 (flow cytometry, 1 mM Mg2+ and 1 mM Ca2+) came to 0.21 mM.
